Source: US20170327594A1 (UNIVERSIT T STUTTGART, published 2017)

T1: TNFR2-Fc fusion protein (Enbrel) (UniProt P20333 23-257)
T1 construct: Commercial product Enbrel, coated at 1 ug/ml; not shown: Fc part of Enbrel
T1 sequence (looked up): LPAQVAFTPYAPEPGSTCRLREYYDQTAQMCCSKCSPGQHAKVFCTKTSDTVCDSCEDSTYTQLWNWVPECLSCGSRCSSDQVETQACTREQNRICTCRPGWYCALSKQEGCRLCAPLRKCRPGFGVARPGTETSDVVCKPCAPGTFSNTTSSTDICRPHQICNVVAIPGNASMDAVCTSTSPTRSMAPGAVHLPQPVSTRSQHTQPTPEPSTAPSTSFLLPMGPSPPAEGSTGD

B1: MHD2-scTNFR2 (ligand)
chain: DAAQPAGGGAAAHHHHHHGGTGGGGSGGKLGGSGGAELPPKVSVFVPPRDGFFGNPRKSKLICQATGFSPRQIQVSWLREGKQVGSGVTTDQVQAEAKESGPTTYKVTSTLTIKESDWLGQSMFTCRVDHRGLTFQQNASSMCVPDGGGSGGGTGSEFLASSRTPSDKPVAHVVANPQAEGQLQWLNRRANALLANGVELRDNQLVVPSEGLYLIYSQVLFKGQGCPSTHVLLTHTISRIAVSYQTKVNLLSAIKSPCQRETPEGAEAKPWYEPIYLGGVFQLEKGDRLSAEINRPDYLNFRESGQVYFGIIALGGGGSSSRTPSDKPVAHVVANPQAEGQLQWLNRRANALLANGVELRDNQLVVPSEGLYLIYSQVLFKGQGCPSTHVLLTHTISRIAVSYQTKVNLLSAIKSPCQRETPEGAEAKPWYEPIYLGGVFQLEKGDRLSAEINRPDYLNFRESGQVYFGIIALGGGGSSSRTPSDKPVAHVVANPQAEGQLQWLNRRANALLANGVELRDNQLVVPSEGLYLIYSQVLFKGQGCPSTHVLLTHTISRIAVSYQTKVNLLSAIKSPCQRETPEGAEAKPWYEPIYLGGVFQLEKGDRLSAEINRPDYLNFRESGQVYFGIIAL
B2: EHD2-scTNFR2-L16aa (ligand)
chain: DAAQPAGGGAAAHHHHHHGGTGGGGSGGKLGGSGGDFTPPTVKILQSSCDGGGHFPPTIQLLCLVSGYTPGTINITWLEDGQVMDVDLSTASTTQEGELASTQSELTLSQKHWLSDRTYTCQVTYQGHTFEDSTKKCADSNGGGSGGGTGSEFLASSRTPSDKPVAHVVANPQAEGQLQWLNRRANALLANGVELRDNQLVVPSEGLYLIYSQVLFKGQGCPSTHVLLTHTISRIAVSYQTKVNLLSAIKSPCQRETPEGAEAKPWYEPIYLGGVFQLEKGDRLSAEINRPDYLNFRESGQVYFGIIALGGGGSSSRTPSDKPVAHVVANPQAEGQLQWLNRRANALLANGVELRDNQLVVPSEGLYLIYSQVLFKGQGCPSTHVLLTHTISRIAVSYQTKVNLLSAIKSPCQRETPEGAEAKPWYEPIYLGGVFQLEKGDRLSAEINRPDYLNFRESGQVYFGIIALGGGGSSSRTPSDKPVAHVVANPQAEGQLQWLNRRANALLANGVELRDNQLVVPSEGLYLIYSQVLFKGQGCPSTHVLLTHTISRIAVSYQTKVNLLSAIKSPCQRETPEGAEAKPWYEPIYLGGVFQLEKGDRLSAEINRPDYLNFRESGQVYFGIIAL
notes: Dimer of the TNFR2-selective single-chain TNF mutant (D143N/A145R) fused to EHD2, 16 aa linker; also called EHD2-scTNFR2 with a 16 aa linker between EHD2 and scTNFR2
B3: EHD2-scTNFR2-L28aa (ligand)
chain: DAAQPAGGGAAAHHHHHHGGTGGGGSGGKLGGSGGDFTPPTVKILQSSCDGGGHFPPTIQLLCLVSGYTPGTINITWLEDGQVMDVDLSTASTTQEGELASTQSELTLSQKHWLSDRTYTCQVTYQGHTFEDSTKKCADSNGGGSGGGSGGGSGGGSGGGSGGSEFLASSRTPSDKPVAHVVANPQAEGQLQWLNRRANALLANGVELRDNQLVVPSEGLYLIYSQVLFKGQGCPSTHVLLTHTISRIAVSYQTKVNLLSAIKSPCQRETPEGAEAKPWYEPIYLGGVFQLEKGDRLSAEINRPDYLNFRESGQVYFGIIALGGGGSSSRTPSDKPVAHVVANPQAEGQLQWLNRRANALLANGVELRDNQLVVPSEGLYLIYSQVLFKGQGCPSTHVLLTHTISRIAVSYQTKVNLLSAIKSPCQRETPEGAEAKPWYEPIYLGGVFQLEKGDRLSAEINRPDYLNFRESGQVYFGIIALGGGGSSSRTPSDKPVAHVVANPQAEGQLQWLNRRANALLANGVELRDNQLVVPSEGLYLIYSQVLFKGQGCPSTHVLLTHTISRIAVSYQTKVNLLSAIKSPCQRETPEGAEAKPWYEPIYLGGVFQLEKGDRLSAEINRPDYLNFRESGQVYFGIIAL
notes: Dimer of the TNFR2-selective single-chain TNF mutant (D143N/A145R) fused to EHD2, 28 aa linker; also called EHD2-scTNFR2 with a 28 aa linker between EHD2 and scTNFR2

What follows are binders tested against T1, TNFR2-Fc fusion protein (Enbrel) (assay: ELISA on coated TNFR2-Fc (Enbrel)).
Description: FIG. 36: a-c) Purified TNF variants (a: MHD2-scTNFR2, b: EHD2-scTNFR2 with a 16 aa linker between EHD2 and scTNFR2 as well as c: EHD2-scTNFR2 with a 28 aa linker between EHD2 and scTNFR2) were analyzed by 8% SDS-PAGE under reducing (+2-ME) or non-reducing (−2-ME) conditions and stained with Coomassie. d) Binding studies with TNFR2-Fc fusion protein. Plates were coated with 1 μg/ml TNFR2-Fc fusion protein (Enbrel). TNF fusion proteins were incubated for 1 h at RT and bound TNF fusion proteins were detected using HRP-conjugated anti-TNF antibodies and TMB substrate (n=2).

Binding result, binds:
B1
B2
B3
